PMC5650626, “Deletion of MtrA Inhibits Cellular Development of Streptomyces coelicolor and Alters Expression of Developmental Regulatory Genes”

Legend:
[1] = biological target: T1, MtrA (MtrASCO) (Streptomyces coelicolor M145) (UniProt Q9KYW8); assay: EMSA; details: EMSA: 20 mM Tris-HCl pH 8.0, 2 mM EDTA, 20 mM KCl, 0.5 mM DTT, 4% Ficoll-400, 2 ug poly(dI-dC), 50 fmol probe, 20 ul, room temperature 15 min; footprinting …
T1 sequence: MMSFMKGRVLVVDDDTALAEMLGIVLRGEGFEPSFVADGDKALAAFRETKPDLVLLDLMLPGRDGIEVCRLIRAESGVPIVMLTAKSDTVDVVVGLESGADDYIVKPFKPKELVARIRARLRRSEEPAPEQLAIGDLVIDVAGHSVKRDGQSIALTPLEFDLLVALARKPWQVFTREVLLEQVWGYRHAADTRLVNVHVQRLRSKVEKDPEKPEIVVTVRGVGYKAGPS

MtrA (MtrASCO) [2] = biological target: T2, MtrA (MtrASCO) (Streptomyces coelicolor M145, UniProt Q9KYW8 1-229); assay: EMSA; complete shift at lowest amount (1.6 ug); EMSA: 20 mM Tris-HCl pH 8.0, 2 mM EDTA, 20 mM KCl, 0.5 mM DTT, 4% Ficoll-400, 2 ug poly(dI-dC), 50 fmol probe, 20 ul, room temperature 15 min; footprinting 25 C, 30 min, 400 ng probe, 40 ul, poly(dI-dC); details: protein: recombinant; tags: His-tag (pET28a NdeI/HindIII; native stop codon in primer); chain copies: 2; label: biotin-11-UTP 3' end; blunt
T2 sequence: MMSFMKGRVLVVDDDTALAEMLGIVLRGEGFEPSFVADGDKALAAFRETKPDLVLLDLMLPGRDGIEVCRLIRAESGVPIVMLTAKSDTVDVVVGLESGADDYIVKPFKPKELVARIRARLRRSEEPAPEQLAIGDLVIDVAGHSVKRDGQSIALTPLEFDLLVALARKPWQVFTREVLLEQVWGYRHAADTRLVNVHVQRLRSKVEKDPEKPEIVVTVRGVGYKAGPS

MtrA (MtrASCO) [3] = biological target: T2, MtrA (MtrASCO); assay: EMSA; stronger than whiI-b; 2.1-6.3 ug MtrA; EMSA: 20 mM Tris-HCl pH 8.0, 2 mM EDTA, 20 mM KCl, 0.5 mM DTT, 4% Ficoll-400, 2 ug poly(dI-dC), 50 fmol probe, 20 ul, room temperature 15 min; footprinting 25 C, 30 min, 400 ng probe, 40 ul, poly(dI-dC); details: protein: recombinant; tags: His-tag (pET28a NdeI/HindIII; native stop codon in primer); chain copies: 2; label: biotin-11-UTP 3' end; blunt
MtrA (MtrASCO) [4] = biological target: T2, MtrA (MtrASCO); assay: EMSA; shift increases with MtrA; EMSA: 20 mM Tris-HCl pH 8.0, 2 mM EDTA, 20 mM KCl, 0.5 mM DTT, 4% Ficoll-400, 2 ug poly(dI-dC), 50 fmol probe, 20 ul, room temperature 15 min; footprinting 25 C, 30 min, 400 ng probe, 40 ul, poly(dI-dC); details: protein: recombinant; tags: His-tag (pET28a NdeI/HindIII; native stop codon in primer); chain copies: 2; label: biotin-11-UTP 3' end; blunt
MtrA (MtrASCO) [5] = biological target: T2, MtrA (MtrASCO); assay: EMSA; almost complete shift at 1.6 ug; EMSA: 20 mM Tris-HCl pH 8.0, 2 mM EDTA, 20 mM KCl, 0.5 mM DTT, 4% Ficoll-400, 2 ug poly(dI-dC), 50 fmol probe, 20 ul, room temperature 15 min; footprinting 25 C, 30 min, 400 ng probe, 40 ul, poly(dI-dC); details: protein: recombinant; tags: His-tag (pET28a NdeI/HindIII; native stop codon in primer); chain copies: 2; label: biotin-11-UTP 3' end; blunt
MtrA (MtrASCO) [6] = biological target: T2, MtrA (MtrASCO); assay: EMSA; lower affinity than whiI-a; 2.1-6.3 ug MtrA; EMSA: 20 mM Tris-HCl pH 8.0, 2 mM EDTA, 20 mM KCl, 0.5 mM DTT, 4% Ficoll-400, 2 ug poly(dI-dC), 50 fmol probe, 20 ul, room temperature 15 min; footprinting 25 C, 30 min, 400 ng probe, 40 ul, poly(dI-dC); details: protein: recombinant; tags: His-tag (pET28a NdeI/HindIII; native stop codon in primer); chain copies: 2; label: biotin-11-UTP 3' end; blunt

CACCAGCCGTCGTTCATCGTTCCGGGCAGGGGGTCCGCACGTCCGGAGGAGGTTCCGTCACTTTGTCGACACGGCCACTTTCGGCCTCGTATCGACAAAGTGCGGAACCGTTCGATCTTCGAATGATCGACAGTGTGTCCGAATTGCTCGGATTGTTACTCACCAGATCGTGATCATTCTCTAAAGGCGGACGCGTTCGGTGCCGAAGACGACTGTGACCTTGAAAGCACGGTTCGTCCCGGCTTAAACCCCATGAGCCGGCCCCGTCCCCGCACCCCAGGAGGCCTGGTGTC (double strand) [whiI upstream PCR probe (293 bp)]
binding [1]: binds

GGACATATGGCTCCCCGGACAAGGTGTCGACGCGGCAGGCTGTGTTGTCGGCCGCGCGGCTGGTAACTCACTGTGAGGTTACGCAGCGTTACTCTGCTGCGTCAAGCCGAATGGTCCGCACCGACTCTTCCGTGGTATTCGCCATCCATTACTCCGTGCGGGTGATCGATGTGGGGCAGAGGAGTGACGGGGGAGTGTCAGGGGGGTCATCGGAGAGGTTCTGTGAGCCTGCTACCGTAGGTGGCGCATATCCGACGTCCTTTAAGGTCCGTCCCGTGAGGC (double strand) [bldD upstream PCR probe (282 bp)]
binding [1]: binds

CGTCAGGGATGCGTCAGGAGTGCGTCAGGGGTCCGAGAGGGGTCCGACCGAGGTGCGCCGGGGCCTTCATGCATGCCCCGTACGGCCCGTCGGGGCCCGCCACGGCGCAGGCTTCACCCGCTTAACCCTCCTGGTTCGCGGTCCCCGCGGGCACGGCCCACGATCGTGCTTACGCGACCGTCGCACCCCGCCGGCCTGGCGGGCGCCGCCGACGATCGCCCCAGTCCACGAGGATGACCGGAGAAGAGGTGGGCCGGATGACGGTCT (double strand) [whiE-ORF1 upstream PCR probe (267 bp)]
binding [1]: no binding

GTCGTCCCCGATGGCAGGTGTAGGCCCCGCGGGTGCGTTCAGTGCCGTCACGGTTGATGCGGCAGCGGCCCGGCGTCGCGAACTTCCTTGACGTCGTGTGCCGTCGGCCGGCCGTCGCCGGCCGTGAGCCAGGGTTCTCCCGGGGCCGTGCTGCCCCTCCGTCTTTGTTCCCCTCGCGCGCTGCGAAAGACGTACGCCGTGCGAAGGCCGTCGGCTCCCGCACTCCCGACGACCTCCAACCTGTGAAATGGACGAATCATGACGA (double strand) [bldKA upstream PCR probe (265 bp)]
binding [1]: no binding

B1: SCO1489 (bldD) 59bp WT (dsDNA)
DNA 1: TGACGCAGCAGAGTAACGCTGCGTAACCTCACAGTGAGTTACCAGCCGCGCGGCCGACA
DNA 2: TGTCGGCCGCGCGGCTGGTAACTCACTGTGAGGTTACGCAGCGTTACTCTGCTGCGTCA
binding result (MtrA (MtrASCO) [2]): binds

B2: whiI-a 59bp WT (SCO6029-a) (dsDNA)
DNA 1: GATCTGGTGAGTAACAATCCGAGCAATTCGGACACACTGTCGATCATTCGAAGATCGAA
DNA 2: TTCGATCTTCGAATGATCGACAGTGTGTCCGAATTGCTCGGATTGTTACTCACCAGATC
binding result (MtrA (MtrASCO) [3]): binds

B3: SCO1568 59bp (dsDNA)
DNA 1: CTCTGGGTGTGCGTGACTCACCTCACGGGGCGGTCACGTTCCTGCGGGGCGGTGGTCTG
DNA 2: CAGACCACCGCCCCGCAGGAACGTGACCGCCCCGTGAGGTGAGTCACGCACACCCAGAG
binding result (MtrA (MtrASCO) [4]): binds

B4: SCO3485 59bp (dsDNA)
DNA 1: ATGCCCGTTGTCGACCAGGCGTGTCACCGTATGGTAAACCGGTTATCTGTGACGCGCGG
DNA 2: CCGCGCGTCACAGATAACCGGTTTACCATACGGTGACACGCCTGGTCGACAACGGGCAT
binding result (MtrA (MtrASCO) [5]): binds

B5: SCO1189 59bp (dsDNA)
DNA 1: CTCCCGCCGACCTCACGTGCCGGTTACAAATCGCTCAACCTCTGGTTGCGAAGCGGTGA
DNA 2: TCACCGCTTCGCAACCAGAGGTTGAGCGATTTGTAACCGGCACGTGAGGTCGGCGGGAG
binding result (MtrA (MtrASCO) [5]): binds

B6: SCO2136 59bp (dsDNA)
DNA 1: TTCCGCCACAACTCACCTGCAGTGACGTCTTCCTGACACCACGTTGCGTGACGGTTCCG
DNA 2: CGGAACCGTCACGCAACGTGGTGTCAGGAAGACGTCACTGCAGGTGAGTTGTGGCGGAA
binding result (MtrA (MtrASCO) [4]): binds

B7: SCO7458 59bp (dsDNA)
DNA 1: GGGCGACCGGTGGTCACCTGGTGTAACAGTCTTCTTATGATCTGTAGACGAAATGATCG
DNA 2: CGATCATTTCGTCTACAGATCATAAGAAGACTGTTACACCAGGTGACCACCGGTCGCCC
binding result (MtrA (MtrASCO) [4]): binds

B8: whiI-b 59bp WT (SCO6029-b) (dsDNA)
DNA 1: TCACAGTCGTCTTCGGCACCGAACGCGTCCGCCTTTAGAGAATGATCACGATCTGGTGA
DNA 2: TCACCAGATCGTGATCATTCTCTAAAGGCGGACGCGTTCGGTGCCGAAGACGACTGTGA
binding result (MtrA (MtrASCO) [6]): binds

B9: SCO7434 59bp (dsDNA)
DNA 1: ATACCGGTCCGGTGTGTCTGCGTGACGGAGCGGTTACGGACAGCATCATGAGCTCTGCA
DNA 2: TGCAGAGCTCATGATGCTGTCCGTAACCGCTCCGTCACGCAGACACACCGGACCGGTAT
binding result (MtrA (MtrASCO) [4]): binds

B10: SCO5583 59bp (dsDNA)
DNA 1: ACGACGACCGGCCCCGGCCGTTCACCCACGCGTAACACGCACCGTGCCTTCGTCACGGC
DNA 2: GCCGTGACGAAGGCACGGTGCGTGTTACGCGTGGGTGAACGGCCGGGGCCGGTCGTCGT
binding result (MtrA (MtrASCO) [4]): binds

B11: SCO2210 59bp (dsDNA)
DNA 1: GCCGCGCCACAACGAGCCCGGGTAACACGGGGTTCACCTACGGGCAACGGTCGGGAAAT
DNA 2: ATTTCCCGACCGTTGCCCGTAGGTGAACCCCGTGTTACCCGGGCTCGTTGTGGCGCGGC
binding result (MtrA (MtrASCO) [4]): binds

B12: SCO3561 59bp (dsDNA)
DNA 1: AATTACTCTCTATTTACTCGCTGTAATCGAACGGATACTCAGGAGACGGGAACATGTCA
DNA 2: TGACATGTTCCCGTCTCCTGAGTATCCGTTCGATTACAGCGAGTAAATAGAGAGTAATT
binding result (MtrA (MtrASCO) [4]): binds

B13: SCO3863 59bp (dsDNA)
DNA 1: CGCCCGACTATACACACCGGCCGATACCGATCGGTGACCTGCGTCGGCGGTCAACTGCC
DNA 2: GGCAGTTGACCGCCGACGCAGGTCACCGATCGGTATCGGCCGGTGTGTATAGTCGGGCG
binding result (MtrA (MtrASCO) [4]): binds
